Key:
[1] = target: T1, RZZS rings: mCherry-RZZ polymerized with farnesylated GFP-Spindly in the presence of MPS1 kinase domain (UniProt P50748 1-2209; Q9H900 1-591; O43264 1-779; Q96EA4 1-605, incubated with MPS1 kinase domain and ATP (the paper names T13 and S15 of ROD as the MPS1 sites) | farnesylated); assay: co-sedimentation; pelleting assay: polymerized RZZS incubated with preys 2 hours at 20°C, 40% glycerol cushion, 100,000g 45 min at 20°C; 50 mM Hepes pH 8, 100 mM NaCl, 2 mM MgCl2, 1 mM TCEP; conditions: both partners purified
T1 construct: ROD, subunit of the RZZ complex; Zwilch, subunit of the RZZ complex; ZW10, subunit of the RZZ complex; Spindly, dynein-dynactin adaptor; A polymer; also called polymerized RZZS; RZZS filaments; copies: + + +

[2] = target: T2, mCherry-tagged ROD-Zwilch-ZW10 (RZZ) complex, wild type (UniProt P50748 1-2209; Q9H900 1-591; O43264 1-779); assay: pull-down; GST-BUB1 baits on GSH beads, no phosphorylation step; 50 mM Hepes pH 8.0, 100 mM NaCl, 1 mM TCEP; beads 2 hours at 4°C; SDS-PAGE, Coomassie or in-gel fluorescence; conditions: both partners purified
T2 construct: ROD, subunit of the RZZ complex; Zwilch, subunit of the RZZ complex; ZW10, subunit of the RZZ complex; also called mCherry-RZZ; mCherry-RZZ^WT; source: expressed and purified using the biGBac system, as previously described; copies: 2 + 2 + 2
T2 sequence (P50748 whole entry, chain 1 of 3): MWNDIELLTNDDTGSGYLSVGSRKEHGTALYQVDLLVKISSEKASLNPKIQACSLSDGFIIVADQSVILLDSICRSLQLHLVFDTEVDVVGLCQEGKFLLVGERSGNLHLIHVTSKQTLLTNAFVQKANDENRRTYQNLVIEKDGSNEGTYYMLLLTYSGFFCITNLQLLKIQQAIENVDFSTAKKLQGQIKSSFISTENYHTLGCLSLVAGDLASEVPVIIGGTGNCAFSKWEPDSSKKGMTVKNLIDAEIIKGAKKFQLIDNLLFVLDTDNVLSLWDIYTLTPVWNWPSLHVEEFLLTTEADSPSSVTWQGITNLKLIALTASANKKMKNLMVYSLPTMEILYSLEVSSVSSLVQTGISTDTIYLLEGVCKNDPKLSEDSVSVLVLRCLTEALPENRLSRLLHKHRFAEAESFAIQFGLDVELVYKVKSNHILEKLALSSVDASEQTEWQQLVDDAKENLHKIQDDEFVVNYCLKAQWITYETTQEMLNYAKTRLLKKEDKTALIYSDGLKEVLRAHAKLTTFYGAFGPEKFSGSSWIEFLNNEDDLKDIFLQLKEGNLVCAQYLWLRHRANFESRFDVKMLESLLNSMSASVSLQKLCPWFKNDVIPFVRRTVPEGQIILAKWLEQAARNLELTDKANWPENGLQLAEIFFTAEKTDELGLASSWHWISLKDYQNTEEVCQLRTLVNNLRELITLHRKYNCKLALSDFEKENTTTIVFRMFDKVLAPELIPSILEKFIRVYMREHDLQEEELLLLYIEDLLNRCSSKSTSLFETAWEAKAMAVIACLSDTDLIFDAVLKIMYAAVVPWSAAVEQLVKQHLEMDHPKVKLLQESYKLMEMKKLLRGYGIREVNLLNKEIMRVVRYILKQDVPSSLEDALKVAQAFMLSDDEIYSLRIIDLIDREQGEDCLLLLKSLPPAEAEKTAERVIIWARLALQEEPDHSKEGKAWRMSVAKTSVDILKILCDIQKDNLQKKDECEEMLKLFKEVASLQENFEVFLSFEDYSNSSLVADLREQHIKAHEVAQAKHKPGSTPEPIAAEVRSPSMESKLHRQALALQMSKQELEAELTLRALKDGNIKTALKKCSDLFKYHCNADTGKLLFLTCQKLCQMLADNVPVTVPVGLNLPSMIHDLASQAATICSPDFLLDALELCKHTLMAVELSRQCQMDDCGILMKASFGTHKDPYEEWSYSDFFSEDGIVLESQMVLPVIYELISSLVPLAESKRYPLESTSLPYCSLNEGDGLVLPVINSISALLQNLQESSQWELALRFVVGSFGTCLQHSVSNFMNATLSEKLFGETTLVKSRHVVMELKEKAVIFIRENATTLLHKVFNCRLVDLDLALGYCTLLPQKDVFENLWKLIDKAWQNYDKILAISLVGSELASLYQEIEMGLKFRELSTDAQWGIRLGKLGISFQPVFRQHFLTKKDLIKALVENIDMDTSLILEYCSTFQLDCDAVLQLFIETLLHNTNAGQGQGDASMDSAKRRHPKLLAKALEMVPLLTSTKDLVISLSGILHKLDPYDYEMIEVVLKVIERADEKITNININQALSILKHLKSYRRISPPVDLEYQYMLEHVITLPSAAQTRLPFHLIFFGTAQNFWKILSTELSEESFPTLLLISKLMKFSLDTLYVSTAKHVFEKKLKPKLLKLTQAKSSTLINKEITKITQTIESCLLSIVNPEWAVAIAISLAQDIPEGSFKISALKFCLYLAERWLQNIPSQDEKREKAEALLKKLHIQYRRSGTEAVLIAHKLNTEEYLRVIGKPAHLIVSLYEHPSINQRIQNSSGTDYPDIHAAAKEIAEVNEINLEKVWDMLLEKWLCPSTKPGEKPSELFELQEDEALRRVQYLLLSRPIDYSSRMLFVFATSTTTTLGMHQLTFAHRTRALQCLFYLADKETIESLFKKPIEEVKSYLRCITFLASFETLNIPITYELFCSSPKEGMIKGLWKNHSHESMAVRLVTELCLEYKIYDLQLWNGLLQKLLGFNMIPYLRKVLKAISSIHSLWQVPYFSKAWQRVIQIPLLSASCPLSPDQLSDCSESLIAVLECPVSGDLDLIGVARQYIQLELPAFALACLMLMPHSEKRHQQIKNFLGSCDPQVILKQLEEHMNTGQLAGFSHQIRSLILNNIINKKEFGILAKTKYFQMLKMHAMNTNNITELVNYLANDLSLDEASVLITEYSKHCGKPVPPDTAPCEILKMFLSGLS
T2 sequence (Q9H900 whole entry, chain 2 of 3): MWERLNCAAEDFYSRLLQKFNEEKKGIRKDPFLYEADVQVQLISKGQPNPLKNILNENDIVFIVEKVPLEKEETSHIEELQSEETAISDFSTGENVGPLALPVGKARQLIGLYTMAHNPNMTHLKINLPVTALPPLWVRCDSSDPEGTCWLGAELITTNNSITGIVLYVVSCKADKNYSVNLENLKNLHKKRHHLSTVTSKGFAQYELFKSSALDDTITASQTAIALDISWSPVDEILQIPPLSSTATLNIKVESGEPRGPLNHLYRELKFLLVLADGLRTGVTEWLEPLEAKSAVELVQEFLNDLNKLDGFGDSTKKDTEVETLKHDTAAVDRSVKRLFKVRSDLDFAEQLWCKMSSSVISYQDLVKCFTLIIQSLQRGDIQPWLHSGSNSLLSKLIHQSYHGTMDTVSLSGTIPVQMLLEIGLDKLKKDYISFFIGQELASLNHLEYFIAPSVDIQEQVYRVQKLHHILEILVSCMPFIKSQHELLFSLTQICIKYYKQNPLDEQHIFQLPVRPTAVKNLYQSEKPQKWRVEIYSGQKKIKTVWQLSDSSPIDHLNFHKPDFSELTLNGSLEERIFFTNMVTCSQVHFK
T2 sequence (O43264 whole entry, chain 3 of 3): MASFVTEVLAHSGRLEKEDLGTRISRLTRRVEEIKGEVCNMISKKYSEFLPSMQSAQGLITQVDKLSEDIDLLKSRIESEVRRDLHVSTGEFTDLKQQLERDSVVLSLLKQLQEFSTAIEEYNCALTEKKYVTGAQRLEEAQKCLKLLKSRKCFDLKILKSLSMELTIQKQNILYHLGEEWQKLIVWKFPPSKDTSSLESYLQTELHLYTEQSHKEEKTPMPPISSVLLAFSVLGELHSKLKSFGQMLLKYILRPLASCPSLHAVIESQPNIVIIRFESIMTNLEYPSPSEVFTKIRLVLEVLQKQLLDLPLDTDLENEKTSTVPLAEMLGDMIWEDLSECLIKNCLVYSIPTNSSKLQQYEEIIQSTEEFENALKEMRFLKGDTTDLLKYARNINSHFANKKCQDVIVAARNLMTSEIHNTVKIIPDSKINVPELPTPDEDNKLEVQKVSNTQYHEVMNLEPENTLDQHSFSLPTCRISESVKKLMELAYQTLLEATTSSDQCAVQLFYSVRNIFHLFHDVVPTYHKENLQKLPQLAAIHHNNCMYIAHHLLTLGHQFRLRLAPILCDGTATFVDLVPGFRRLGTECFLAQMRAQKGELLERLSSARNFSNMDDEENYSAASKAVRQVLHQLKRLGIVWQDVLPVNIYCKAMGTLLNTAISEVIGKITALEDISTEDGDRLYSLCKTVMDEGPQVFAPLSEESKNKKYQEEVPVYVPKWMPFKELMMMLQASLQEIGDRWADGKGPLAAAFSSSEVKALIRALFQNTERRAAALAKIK

T1 sequence (P50748 whole entry, chain 1 of 4, the tested form may be a part): as the sequence (P50748 whole entry, chain 1 of 3) above
T1 sequence (Q9H900 whole entry, chain 2 of 4, the tested form may be a part): as the sequence (Q9H900 whole entry, chain 2 of 3) above
T1 sequence (O43264 whole entry, chain 3 of 4, the tested form may be a part): as the sequence (O43264 whole entry, chain 3 of 3) above
T1 sequence (Q96EA4 whole entry, chain 4 of 4, the tested form may be a part): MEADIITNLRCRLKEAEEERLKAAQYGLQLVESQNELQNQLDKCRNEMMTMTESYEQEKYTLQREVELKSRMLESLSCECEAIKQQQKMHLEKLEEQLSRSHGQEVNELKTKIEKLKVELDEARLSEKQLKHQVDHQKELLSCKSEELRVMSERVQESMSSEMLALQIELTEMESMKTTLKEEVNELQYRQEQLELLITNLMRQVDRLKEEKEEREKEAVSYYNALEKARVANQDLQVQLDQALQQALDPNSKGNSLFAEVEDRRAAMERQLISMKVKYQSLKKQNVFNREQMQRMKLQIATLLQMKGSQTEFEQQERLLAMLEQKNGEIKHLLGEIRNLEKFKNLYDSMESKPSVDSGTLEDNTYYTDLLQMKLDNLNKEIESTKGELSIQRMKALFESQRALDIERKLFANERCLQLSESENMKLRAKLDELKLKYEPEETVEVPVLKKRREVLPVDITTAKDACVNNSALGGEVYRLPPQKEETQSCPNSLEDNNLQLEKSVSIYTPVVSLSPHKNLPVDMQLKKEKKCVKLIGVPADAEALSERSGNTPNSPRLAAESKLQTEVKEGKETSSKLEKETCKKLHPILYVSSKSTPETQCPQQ

binding result [1]: binds
binding result [2]: binds
B1: GST-BUB1^467-521 (domain or fragment, human, UniProt O43683 467-521, looked up)
chain: ALGFIMNMFQAPTLPDISDDKDEWQSLDQNEDAFEAQFQKNVRSSGAWGVNKIIS
notes: source: E. coli BL21 CodonPlus, purified (GSTrap, SEC); not shown: GST, N-terminal, kept

— publication PMC12429063, “The BUB1 and BUBR1 paralogs scaffold the kinetochore fibrous corona” (Science Advances, 2025)
